Results published in article PMC12562343, “Modular Virus-like Particles for Antigen Presentation: Comparing Genetic Fusion and Click-Chemistry for Purification” (International Journal of Molecular Sciences, 2025).

Tests used:
[1] = molecular target: HBc-pAzF (HBc ending at Val149 with p-azidophenylalanine in place of Ala80) (Hepatitis B virus genotype D, serotype ayw) (UniProt P03146); assay: SEC; analytical HPLC-SEC of urea-dissociated samples: purified HBc VLPs after incubation with 4 M urea, and AEX eluates in 2 M urea; capsid to dimers
[2] = molecular target: the molecule itself; assay: as above

HBc-pAzF (HBc ending at Val149 with p-azidophenylalanine in place of Ala80) (from UniProt P03146 1-149) (domain or fragment)
stoichiometry N [1]: 2

B1: truncated Hepatitis B core antigen (HBc) ending at Val149 (domain or fragment)
chain: MDIDPYKEFGATVELLSFLPSDFFPSVRDLLDTASALYREALESPEHCSPHHTALRQAILCWGELMTLATWVGVNLEDPASRDLVVSYVNTNMGLKFRQLLWFHISCLTFGRETVIEYLVSFGVWIRTPPAYRPPNAPILSTLPETTVV
notes: Hepatitis B core antigen (capsid protein), HBV genotype D, serotype ayw, truncated variant ending at Val149; Forms dimers that assemble into VLPs; no tag is mentioned; also called HBc149; unmodified HBc; source: E. coli BL21(DE3), purified (AMS precipitation, AEX native or under dissociating conditions, HIC)
stoichiometry N [2]: 2
